Results as given in patent US20190038721A1 (Novo Nordisk, published 2019).
Starred links: 1 amine or outer side, 2 acyl side, 3 side chain; linkers in the order of their positions; H or OH if unused. Non-standard residues stand in square brackets, D forms with d. Groups on a side chain read outwards from the residue. No end group written: not given here. *: point of attachment. 2‑(bis(3-aminopropyl)amino)acetyl = branch point, each 3-aminopropyl arm carries one of the two bracketed chains; 4‑(aminomethyl)cyclohexanecarbonyl = 4-(aminomethyl)cyclohexanecarbonyl linker unit; Undecanoyl(11-OPh(4-COOH)) = O=C(O)c1ccc(OCCCCCCCCCCC(=O)*)cc1; Decanoyl(10-(4-HOOC-PhO)) = O=C(O)c1ccc(OCCCCCCCCCC(=O)*)cc1; Decanoyl(10-O(3-COOH-Ph)) = O=C(O)c1cccc(OCCCCCCCCCC(=O)*)c1; C20 diacid = O=C(O)CCCCCCCCCCCCCCCCCCC(=O)*; γGlu = O=C(O)[C@H](CCC(=O)[*:2])N[*:1]; C14 diacid = O=C(O)CCCCCCCCCCCCC(=O)*; Palmitoyl = CCCCCCCCCCCCCCCC(=O)*; AEEA = NCCOCCOCC(=O)O; Aib = CC(C)(N)C(=O)O

B1: N{Epsilon-37}-[2-[2-[2-[[2-[2-[2-[[(2)-2,6-bis[[2-[2-[2-[[2-[2-[2-[[2-[2-[2-[[2-[2-[2-[[(4S)-4-carboxy-4-[[4-[(19-carboxynonadecanoylamino)methyl]cyclohexanecar … (peptide)
peptide: HWEGTFTSDVSSYLEEQAAREFIAWLVRGRK([AEEA-AEEA-2,6‑diaminohexanoyl-AEEA-AEEA-AEEA-AEEA-γGlu-4‑(aminomethyl)cyclohexanecarbonyl-C20 diacid)+(AEEA-AEEA-AEEA-AEEA-γGlu-4‑(aminomethyl)cyclohexanecarbonyl-C20 diacid])
notes: the claim prints (2S)-2,6-bis; also called 12
B2: Comparative Example 3A (Example 31 of WO 2012/140117) (peptide)
chain: H[Aib]EGTFTSDVSSYLEEQAARKFIEWLVRGKGEG
modifications: not fully specified (residues 21, 30); also: Lys21 and Lys30 acylated as, structure not given here

Tests used:
human GLP-1 receptor [1] = target: T1, human GLP-1 receptor (human, UniProt P43220 24-463); test: cell-based or functional assay
human GLP-1 receptor [2] = target: T1, human GLP-1 receptor; test: competitive binding (SPA), displacement of 125I-GLP-1(7-36)NH2 from membranes with human GLP-1 receptor, high HSA (2.0% w/v)
Experimental: (§1) 1. For the receptor binding assay in the presence of low HSA (0.005% (w/v)) 50 μl of the assay buffer was added to each well of an assay plate. Assay continued with step 3. 2. For the receptor binding assay in the presence of high HSA (2% (w/v)) 50 μl of the 8% (w/v) albumin stock was added to each well of an assay plate. Assay continued with step 3. 3. […] 4. Cell membrane aliquots were thawed and diluted to their working concentration. Fifty μl were added to each well in the assay plate. 5. WGA SPA beads were suspended in assay buffer at 20 mg/ml. The suspension was diluted to 10 mg/ml in assay buffer just prior to addition to the assay plate. Fifty μl were added to each well in the assay plate. 6. […] A 25 μl aliquot was reserved for measuring total counts/well. 7. The assay plate was incubated for 2 h at 30° C. 8. The assay plate was centrifuged for 10 min. 9. The assay plate was read in a Packard TopCount NXT instrument.
(§2) Individual replicates were analysed using non-linear regression in GraphPad Prism.

human GLP-1 receptor [3] = target: T1, human GLP-1 receptor; test: competitive binding (SPA), displacement of 125I-GLP-1(7-36)NH2 from membranes with human GLP-1 receptor, low HSA
Experimental: as §1, §2

Row | Binder | EC50 (pM), in vitro potency, CRE luciferase reporter gene assay in BHK cells (human GLP-1 receptor [1]) | IC50 (human GLP-1 receptor [2]) | IC50 (human GLP-1 receptor [3])
1 | HWEGTFTSDVSSYLEEQAAREFIAWLVRGRGK([AEEA-AEEA-γGlu-4‑(aminomethyl)cyclohexanecarbonyl-C20 diacid])GGSK([AEEA-AEEA-γGlu-4‑(aminomethyl)cyclohexanecarbonyl-C20 diacid]) | 70.5 pM | 305 nM | 
2 | HWEGTFTSDVSSYLEGQAAK([AEEA-AEEA-γGlu-Decanoyl(10-(4-HOOC-PhO))])EFIAWLVRGRK([AEEA-AEEA-γGlu-Decanoyl(10-(4-HOOC-PhO))]) | 30 pM | 771 nM | 6.23 nM
3 | HWEGTFTSDVSSYLEGQAAKEFIAWLVKGRG (also called 8W GLP-1(7-37)) [[Trp8]-GLP-1-(7-37)-peptide] | 12 pM | 0.208 nM | 0.67 nM
4 | HWEGTFTSDVSSYLEGQAAK([γGlu-Palmitoyl])EFIAWLVRGRG [N{Epsilon-26}-[(4S)-4-carboxy-4-(hexadecanoylamino)butanoyl]-[Trp8,Arg34]-GLP-1-(7-37)-peptide] | 21 pM |  | 
5 | HWEGTFTSDVSSYLEEQAAREFIAWLVRGK([AEEA-AEEA-AEEA-AEEA-γGlu-C14 diacid])K([AEEA-AEEA-AEEA-AEEA-γGlu-C14 diacid]) |  |  | 0.55 nM
6 | HWEGTFTSDVSSYLEEQAAREFIAWLVRGK([AEEA-AEEA-γGlu-Decanoyl(10-O(3-COOH-Ph))])K([AEEA-AEEA-γGlu-Decanoyl(10-O(3-COOH-Ph))]) |  |  | 0.405 nM
7 | HPEGTFTSDVSSYLEEQAAREFIAWLVKGRG [[Pro8,Glu22,Arg26]-GLP-1-(7-37)-peptide] | 0.57 pM | 0.035 nM | 0.075 nM
8 | HWEGTFTSDVSSYLEEQAAREFIAWLVRGRK([Lys-AEEA-AEEA-AEEA-AEEA-AEEA-AEEA-γGlu-4‑(aminomethyl)cyclohexanecarbonyl-C20 diacid)+(AEEA-AEEA-AEEA-AEEA-AEEA-AEEA-γGlu-4‑(aminomethyl)cyclohexanecarbonyl-C20 diacid]) (also called 10) | 31.2 pM | 123 nM | 
9 | HWEGTFTSDVSSYLEEQAAREFIAWLVRGRK([AEEA-AEEA-2‑(bis(3-aminopropyl)amino)acetyl-AEEA-AEEA-AEEA-AEEA-γGlu-4‑(aminomethyl)cyclohexanecarbonyl-C20 diacid)+(AEEA-AEEA-AEEA-AEEA-γGlu-4‑(aminomethyl)cyclohexanecarbonyl-C20 diacid]) (also called 13) [N{Epsilon-37}-[2-[2-[2-[[2-[2-[2-[[2-[bis[3-[[2-[2-[2-[[2-[2-[2-[[2-[2-[2-[[2-[2-[2-[[(4 …] | 32.1 pM | 71.6 nM | 
10 | B1 | 62.9 pM | 51.8 nM | 
11 | HWEGTFTSDVSSYLEEQAAREFIAWLVRGK([AEEA-AEEA-γGlu-Undecanoyl(11-OPh(4-COOH))])K([AEEA-AEEA-γGlu-Undecanoyl(11-OPh(4-COOH))]) |  |  | 0.535 nM
12 | HGEGTFTSDVSSYLEGQAAKEFIAWLVKGRG [[Gly8]-GLP-1-(7-37)-peptide] | 32 pM | 0.62 nM | 2.64 nM
13 | H[Aib]EGTFTSDVSSYLEEQAAREFIAWLVRGRGKGGSK (also: the two extension Lys residues acylated as in the compound) [Comparative Example 9A (Example 3 of WO 2015/000942)] | 41.3 pM | 235 nM | 1.04 nM
14 | B2 | 0.53 pM | 134 nM | 0.26 nM
15 | H[Aib]EGTFTSDVSSYLEEQAAREFIAWLVRGRPK (also: Lys32 acylated as, structure not given here) [Comparative Example 11A (Example 10 of WO 2016/083499)] | 12.5 pM | 34.4 nM | 0.401 nM
16 | HWEGTFTSDVSSYLEEQAARK([AEEA-AEEA-γGlu-Decanoyl(10-(4-HOOC-PhO))])FIEWLVRGK([AEEA-AEEA-γGlu-Decanoyl(10-(4-HOOC-PhO))])GEG | 2.7 pM | 84.9 nM | 1.03 nM
